Data reported in the supplement of paper PMC9732359.
± gives the uncertainty stated by the source.

Experiment: protein stability index of a GFP-peptide fusion (yeast GPS) (PSI 1-4); higher = more stable; sorted into four equal gates, so the index is relative within each strain
Method in brief: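 Plasmids in a pooled yeast library fused tiled 17-residue yeast protein peptides downstream of GFP and also expressed Cherry. Mid-log cultures grown without leucine were sorted into four equal gates by GFP/Cherry fluorescence ratio. Each gate's plasmids were PCR-amplified and Illumina-sequenced, and reads were matched to strains by barcodes. The protein stability index is derived by multiplying each gate's read frequency by its gate number and summing the results.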

Sequence	protein stability index (doa10∆)	protein stability index (pdr5∆)	protein stability index (san1∆)	protein stability index (ubr1∆)
TTVQVAEEAIVNAMRVL [PRE4]	2.91 ± 0.12	2.72 ± 0.091	1.88 ± 0.27	2.54 ± 0.09
KFQLKKVLCLAVAVGNV [RPL1A]	1.63 ± 0.047	1.25 ± 0.051	1.27 ± 0.09	1.15 ± 0.033
EIKNDFIMVKGCIPGNR [RPL3]	1.1 ± 0.14	1.66 ± 0.08	1.48 ± 0.16	1.45 ± 0.11
QSQPQEKFSEKMLKIWT [ECM29]	3.57 ± 0.26	3.08 ± 0.15	2.9 ± 0.21	3.03 ± 0.2
QEGLITTTMLQLFSTFD [SSN2]	2.58 ± 0.051	2.57 ± 0.072	2.55 ± 0.056	2.61 ± 0.034
GLSIHPTQITQYTQRLS [SRP68]	2.09 ± 0.063	1.93 ± 0.066	1.92 ± 0.071	2.13 ± 0.071
DSDMLTKSHNTVQSWLC [NUT1]	2.53 ± 0.18	2.63 ± 0.22		2.87 ± 0.078
HVKIRATGGTRTKTPGP [RPS14B]	1.38 ± 0.13	1.84 ± 0.15	2.25 ± 0.25	
VALPPGSNYNPYFPGGS [CYT1]	2.32 ± 0.058	2.81 ± 0.064	2.65 ± 0.067	2.64 ± 0.036
IGEGAKLVRDAFALAKE [RPT5]	3.51 ± 0.12	3.38 ± 0.14	3.3 ± 0.093	3.5 ± 0.11
NSQLVGKPHFSLLGGFD [PCI8]	2.42 ± 0.087	2.33 ± 0.09	2.34 ± 0.18	2.54 ± 0.053
SGQTFAYGVLDSNYKWD [PRE2]	2.39 ± 0.075	2.76 ± 0.098	1.85 ± 0.14	2.7 ± 0.11
RGGVKRISGLIYEEVRA [HHF1]	3.35 ± 0.13	3.13 ± 0.2	3.15 ± 0.11	
FSSNLSYANHLEESDVE [YOR098C/NUP1]	2.45 ± 0.087	2.22 ± 0.059	1.91 ± 0.082	1.89 ± 0.052
EQHHINNLKNSGNSANN [GAL11]	2.41 ± 0.14	2.09 ± 0.088	2.39 ± 0.1	2.32 ± 0.13
HDYWNKIMQSISNKDVI [SRB4]	1.85 ± 0.27	1.62 ± 0.23	1.33 ± 0.19	
ESGSTPISISNAPTFNP [YAR002W/NUP60]	2.25 ± 0.067	2.64 ± 0.061	1.98 ± 0.077	2.63 ± 0.058
HNMLNLLIHRKGLTYLH [PRP8]	1.33 ± 0.08	1.45 ± 0.038	1.6 ± 0.1	1.66 ± 0.049
TNGKPDMAILERYYELA [ARP7]	3.23 ± 0.088	3.1 ± 0.097	3.01 ± 0.075	3.19 ± 0.06
QGITRNVVNYLSINKNF [RPC17]	1.31 ± 0.059	1.62 ± 0.051	1.23 ± 0.093	1.52 ± 0.038
PNHIPSVNPSNKPIKRM [SWP82]	2.87 ± 0.087	2.96 ± 0.057	2.75 ± 0.081	3.02 ± 0.042
GDFGGWFCPCHGSHYDI [RIP1]	2.87 ± 0.15	3.11 ± 0.078	3 ± 0.058	3.18 ± 0.082
KKNNKIKESSKKIKGKS [SRP21]	3.07 ± 0.1		3.26 ± 0.052	
RIQLMNDFTTKLINIKK [MED1]	2.89 ± 0.081	2.81 ± 0.099	2.84 ± 0.11	2.97 ± 0.086
GHEELKRRIEEEQEKIN [ISW2]	3.36 ± 0.082	3.47 ± 0.086	3.13 ± 0.062	3.35 ± 0.055
KAAFIRVNGSEFVHKYL [RPT3]	2.22 ± 0.062	2.46 ± 0.073	2.15 ± 0.087	2.77 ± 0.08
LTGEAEIEQPVTTFVFT [FAS1]	3.16 ± 0.083	2.98 ± 0.067	2.64 ± 0.096	2.4 ± 0.055
AKEVKVLYHTSGAITFV [PRP8]	2.12 ± 0.055	2.5 ± 0.064	2.58 ± 0.055	2.72 ± 0.068
